In test [1] the target is human recombinant plasminogen activator inhibitor‐1 (stable PAI‐1 variant 14‐1B) (human) (UniProt P05121).
Test [2] shares this target. As to the kind of experiment: SPR; anti‐PAI‐1 monoclonal antibody (Mab‐1) immobilised on a CM5 Biacore chip, PAI‐1 captured on it, uPA‐S195A variants applied from 25 nM to 48.8 pM; global fit to a 1:1 binding model; repeated three times.
Test [3] has the same target. The source holds these as a separate data set.
For test [4] the target is unchanged. This is another data set of the same source.
Test [5] concerns the target endogenous plasma PAI‐1 (human (endogenous in plasma)) (UniProt P05121).
Test [6] concerns the target recombinant human plasminogen activator inhibitor‐2 (human) (UniProt P05120).
Test [7] deals with human α2‐antiplasmin (human) (UniProt P08697).
The target of test [8] is human antithrombin‐III (human) (UniProt P01008).
In the next test the target is PN‐1 (human) (UniProt P07093).
A further test deals with murine PAI‐1 (murine) (UniProt P22777).
In test [9] the target is human recombinant plasminogen activator inhibitor‐1 (stable PAI‐1 variant 14‐1B) (human) (UniProt P05121). The source holds these as a separate data set.

As a reminder, the Kd is the free concentration of one partner at which half of the binding sites on the other are occupied at equilibrium, for simple one-to-one binding. As a reminder, the koff is a measure of how fast the partners let go of each other. Broadly, the kon is the rate constant with which the complex forms.

For “uPA‐SPD S195A‐C122A‐N145Q‐Q192K (domain or fragment)”, the IC50, chromogenic assay: recovery of uPA activity (S‐2444 hydrolysis) from inhibition by PAI‐1 (15 nM PAI‐1, 15 nM human uPA); blocks PAI‐1 + uPA in test [1] worked out at 3000 nM.

As for “uPA‐SPD S195A‐C122A‐N145Q‐G37bR (domain or fragment)”, in test [2], the Kd stood at 0.32 nM, the off-rate (koff) was 0.000698 s⁻¹ and the kon worked out at 2.3e+06 M⁻¹ s⁻¹. Besides, the IC50, chromogenic assay: recovery of uPA activity (S‐2444 hydrolysis) from inhibition by PAI‐1 (15 nM PAI‐1, 15 nM human uPA); blocks PAI‐1 + uPA in test [1] is 25 nM.

As to “uPA‐SPD S195A‐C122A‐N145Q‐G37bR‐R217L‐A96E (domain or fragment)”, in [1], the IC50, chromogenic assay: recovery of uPA activity (S‐2444 hydrolysis) from inhibition by PAI‐1 (15 nM PAI‐1, 15 nM human uPA); blocks PAI‐1 + uPA came out at 30 nM.

As to “uPA‐SPD S195A‐C122A‐N145Q‐R217L (domain or fragment)”, in test [2], the dissociation constant Kd amounted to 0.63 nM, the koff worked out at 0.00084 s⁻¹ and the association rate constant (kon) came out at 1.33e+06 M⁻¹ s⁻¹. Besides, in test [1], the IC50, chromogenic assay: recovery of uPA activity (S‐2444 hydrolysis) from inhibition by PAI‐1 (15 nM PAI‐1, 15 nM human uPA); blocks PAI‐1 + uPA was 48 nM.

Regarding “uPA‐SPD S195A‐C122A‐N145Q‐Y149R (domain or fragment)”, the IC50, chromogenic assay: recovery of uPA activity (S‐2444 hydrolysis) from inhibition by PAI‐1 (15 nM PAI‐1, 15 nM human uPA); blocks PAI‐1 + uPA in test [1] is more than 3000 nM.

On to “uPA‐SPD S195A‐C122A‐N145Q‐Y151F (domain or fragment)”, for which the IC50, chromogenic assay: recovery of uPA activity (S‐2444 hydrolysis) from inhibition by PAI‐1 (15 nM PAI‐1, 15 nM human uPA); blocks PAI‐1 + uPA in test [1] was found to be 1000 nM.

For the substance “uPA‐SPD S195A‐C122A‐N145Q‐G37bR‐Y60bK (domain or fragment)”, in test [2], the dissociation constant (Kd) is 0.83 nM, the dissociation rate constant (koff) amounted to 0.00114 s⁻¹ and the on-rate (kon) amounted to 2.35e+06 M⁻¹ s⁻¹. For the same substance, the IC50, chromogenic assay: recovery of uPA activity (S‐2444 hydrolysis) from inhibition by PAI‐1 (15 nM PAI‐1, 15 nM human uPA); blocks PAI‐1 + uPA in test [1] was found to be 90 nM.

Regarding “uPA‐SPD S195A‐C122A‐N145Q (domain or fragment)”, the clot lysis time in human platelet‐poor plasma: 2.4 nM tPA, 0.9 nM PAI‐1, 6.5 nM uPA‐S195A; blocks PAI‐1 + tPA in test [3] was found to be 39 min. In [2], the Kd was 1.57 nM, the koff was found to be 0.00121 s⁻¹ and the kon came to 776000 M⁻¹ s⁻¹. Moreover, the IC50, chromogenic assay: recovery of uPA activity (S‐2444 hydrolysis) from inhibition by PAI‐1 (15 nM PAI‐1, 15 nM human uPA); blocks PAI‐1 + uPA in [1] is 109 nM.

“uPA‐SPD S195A‐C122A‐N145Q‐A96E (domain or fragment)”: the IC50, chromogenic assay: recovery of uPA activity (S‐2444 hydrolysis) from inhibition by PAI‐1 (15 nM PAI‐1, 15 nM human uPA); blocks PAI‐1 + uPA in [1] was determined as 22 nM.

As to “uPA‐SPD S195A‐C122A‐N145Q‐G37bR‐Y60bK‐R217L (domain or fragment)”, in [1], the IC50, chromogenic assay: recovery of uPA activity (S‐2444 hydrolysis) from inhibition by PAI‐1 (15 nM PAI‐1, 15 nM human uPA); blocks PAI‐1 + uPA was determined as 26 nM.

For the substance “PAItrap (uPA‐S195A‐G37bR‐R217L‐C122A‐N145Q) (domain or fragment)”, the clot lysis time in human platelet‐poor plasma: 2.4 nM tPA, 0.9 nM PAI‐1, 6.5 nM PAItrap; blocks PAI‐1 + tPA in [4] is 6 min. In addition, the time to 50% clot lysis in platelet‐free plasma without exogenous PAI‐1: 100 pM tPA, 20 or 200 nM PAItrap (96 min without PAItrap); blocks PAI‐1 + tPA in test [5] was 68 min. The IC50, chromogenic assay: recovery of uPA activity (S2444) from inhibition by 15 nM PAI‐2, 15 nM uPA, 37°C; blocks PAI‐2 + uPA in test [6] stood at 14000 nM. Besides, in test [7], the IC50, chromogenic assay: plasmin activity (Gly‐Arg‐p‐nitroanilide) with 15 nM α2‐antiplasmin and 15 nM human plasmin; blocks α2‐antiplasmin + plasmin is more than 50000 nM. The IC50, chromogenic assay: remaining thrombin activity (Gly‐Arg‐p‐nitroanilide) with 30 nM antithrombin‐III and 30 nM human α‐thrombin, 37°C; blocks antithrombin‐III + α‐thrombin in test [8] came to 40000 nM. The IC50, chromogenic assay: recovery of uPA activity (S2444) from inhibition by 15 nM PN‐1, 15 nM uPA, 37°C; blocks PN‐1 + uPA in the test with PN‐1 (human) amounted to 16000 nM. In addition, in test [2], the Kd stood at 0.15 nM, the koff is 0.000627 s⁻¹ and the kon is 4.11e+06 M⁻¹ s⁻¹. Further, in the test with murine PAI‐1 (murine), the IC50, chromogenic assay similar to that used for human PAI‐1; inhibition of murine PAI‐1 came to 14 nM. The IC50, chromogenic assay: recovery of uPA activity (S‐2444 hydrolysis) from inhibition by PAI‐1 (15 nM PAI‐1, 15 nM human uPA); blocks PAI‐1 + uPA in test [1] was 10 nM. The IC50 of blocking PAI‐1 inhibition on tPA (Fig. S1); blocks PAI‐1 + tPA in test [9] is 14 nM.

Source of the values: publication PMC4876229.
